Numbered stars: 1 amine (or outer) side, 2 acyl side, 3 side chain; on linkers, the order of the positions; unused ones are H or OH. Bridge positions count the residues as written; N and C are the ends. Square brackets hold non-standard residues; d marks the D form. Ends that are not written are not given here. dTiq = D-1,2,3,4-tetrahydroisoquinoline-1-carboxylic acid, O=C([C@H]1c2ccccc2CCN1[*:1])[*:2]; Bip = N[C@@H](Cc1ccc(-c2ccccc2)cc1)C(=O)O; Dip = N[C@H](C(=O)O)C(c1ccccc1)c1ccccc1; Phe(4-I) = N[C@@H](Cc1ccc(I)cc1)C(=O)O; 1Nal = N[C@@H](Cc1cccc2ccccc12)C(=O)O; d1Nal = N[C@H](Cc1cccc2ccccc12)C(=O)O; Tiq1c(1S) = O=C(O)[C@H]1NCCc2ccccc21; Tic = O=C(O)[C@@H]1Cc2ccccc2CN1; dTic = O=C(O)[C@H]1Cc2ccccc2CN1; Cha = N[C@@H](CC1CCCCC1)C(=O)O; dPhg = N[C@@H](C(=O)O)c1ccccc1; dTle = CC(C)(C)[C@@H](N)C(=O)O; Phg = N[C@H](C(=O)O)c1ccccc1; dAia = not defined here
T1: human urotensin II receptor (UT) (human, UniProt Q9UKP6 1-389)
T1 construct: whole, on cells; also called hUT; hGPR14
T1 sequence (looked up): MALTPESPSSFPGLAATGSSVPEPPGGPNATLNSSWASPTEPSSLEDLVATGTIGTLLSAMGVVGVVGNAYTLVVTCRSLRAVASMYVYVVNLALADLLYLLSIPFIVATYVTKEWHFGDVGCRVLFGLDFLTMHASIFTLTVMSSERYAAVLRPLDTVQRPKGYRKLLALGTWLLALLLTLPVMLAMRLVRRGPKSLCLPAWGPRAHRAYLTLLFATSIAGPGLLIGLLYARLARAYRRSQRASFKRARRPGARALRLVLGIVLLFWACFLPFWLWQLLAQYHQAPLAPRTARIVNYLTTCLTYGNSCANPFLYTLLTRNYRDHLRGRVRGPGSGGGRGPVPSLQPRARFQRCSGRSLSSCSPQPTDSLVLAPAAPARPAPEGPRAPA

T2: UT receptor present in rat aortic ring (rat, UniProt P49684 1-386)
T2 sequence (looked up): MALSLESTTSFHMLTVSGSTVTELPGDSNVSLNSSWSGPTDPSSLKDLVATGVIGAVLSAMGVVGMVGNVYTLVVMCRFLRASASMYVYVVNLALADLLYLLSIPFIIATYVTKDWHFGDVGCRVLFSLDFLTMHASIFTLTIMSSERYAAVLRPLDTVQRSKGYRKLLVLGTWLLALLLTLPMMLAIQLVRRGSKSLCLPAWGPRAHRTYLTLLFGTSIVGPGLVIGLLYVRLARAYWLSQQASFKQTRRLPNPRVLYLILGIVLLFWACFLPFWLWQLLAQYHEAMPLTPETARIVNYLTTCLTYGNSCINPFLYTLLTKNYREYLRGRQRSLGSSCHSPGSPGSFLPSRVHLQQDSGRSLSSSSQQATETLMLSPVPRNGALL

B1: [Tiq^4]URP (peptide)
peptide: H-ACF[Tiq1c(1S)]KYCV-OH
modifications: disulfide 2-7
notes: H-Ala-Cys-Phe-Tiq-Lys-Tyr-Cys-Val-OH; also called compound 16
B2: [Phe(I)^4]URP (peptide)
peptide: H-ACF[Phe(4-I)]KYCV-OH
modifications: disulfide 2-7
notes: H-Ala-Cys-Phe-Phe(I)-Lys-Tyr-Cys-Val-OH; also called compound 5; [para-iodo-Phe^4]URP
B3: [Phg^4]URP (peptide)
peptide: H-ACF[Phg]KYCV-OH
modifications: disulfide 2-7
notes: H-Ala-Cys-Phe-Phg-Lys-Tyr-Cys-Val-OH; also called compound 14
B4: [D-Aia^4]URP (peptide)
peptide: ACF[dAia]KYCV
modifications: disulfide 2-7; not fully specified (bridges); reading uncertain; also: D-Aia indole ring bonded to Lys5 backbone N
notes: also called compound 13
B5: [1-Nal^4]URP (peptide)
peptide: H-ACF[1Nal]KYCV-OH
modifications: disulfide 2-7
notes: H-Ala-Cys-Phe-Nal-Lys-Tyr-Cys-Val-OH; also called compound 3
B6: ^125I-URP (peptide)
peptide: H-ACFWKYCV-OH
modifications: disulfide 2-7; also: 125I-labelled, site not given here
notes: used at 0.2 nM; also called radiolabeled URP
B7: [Pen^2, Tiq^4]URP (peptide)
peptide: AXFXKYCV
modifications: position 2 is beta,beta-dimethyl-cysteine (Pen); position 4 is Tiq; cyclic (Pen2-Cys7 disulfide)
notes: H-Ala-Pen-Phe-Tiq-Lys-Tyr-Cys-Val-OH; also called compound 20
B8: urotensin II-related peptide (URP) (peptide)
peptide: H-ACFWKYCV-OH
modifications: disulfide 2-7
SMILES: CC(C)[C@H](NC(=O)[C@@H]1CSSC[C@H](NC(=O)[C@H](C)N)C(=O)N[C@@H](Cc2ccccc2)C(=O)N[C@@H](Cc2c[nH]c3ccccc23)C(=O)N[C@@H](CCCCN)C(=O)N[C@@H](Cc2ccc(O)cc2)C(=O)N1)C(=O)O

Target: T1, human urotensin II receptor (UT)
Assay: displacement of 0.2 nM 125I-hUII from CHO cells expressing human UT
Description: Cell Culture and Binding Experiments: Transfected CHO cells expressing the human urotensin receptor (CHO-UT) were maintained in Ham-F12 medium with 10% fetal bovine serum (FBS), 2 mM L-glutamine, 100 Ul/mL each of penicillin and streptomycin, and 400 μg/mL G418. […] Binding assays were following known literature procedures using CHO cells stably transfected with hGPR14. […] After 90 min of incubation at room temperature, cells were washed, lysed, and the cell-bound radioactivity was quantified using a γ-counter. […] The cells were then washed, lysed, and the radioactivity counted on a γ-counter (1470 Automatic Gamma Counter, Perkin Elmer).

IC50	Molecule
10 nM	B1
58 nM	B2
> 1000 nM	ACF[dTle]KYCV-OH (disulfide 2-7, also called compound 8) [[D-Tbg^4]URP]
29 nM	B3
21 nM	ACF[dTiq]KYCV (disulfide 2-7, also called compound 17) [[D-Tiq^4]URP]
60 nM	B4
17 nM	B5
29 nM	H-ACF[dPhg]KYCV-OH (disulfide 2-7, also called compound 15) [[D-Phg^4]URP]
46 nM	ACF[d1Nal]KYCV (disulfide 2-7, also called compound 4; [D-Nal^4]URP) [[D-1-Nal^4]URP]

Target: T1, human urotensin II receptor (UT)
Assay: dissociation from living CHO-UT cells started with 10^-6 M URP + 10^-6 M urocontrin ([Bip^4]URP)
Description: (§1) Binding assays were following known literature procedures using CHO cells stably transfected with hGPR14. […] After 90 min of incubation at room temperature, cells were washed, lysed, and the cell-bound radioactivity was quantified using a γ-counter. […] The cells were then washed, lysed, and the radioactivity counted on a γ-counter (1470 Automatic Gamma Counter, Perkin Elmer).

half-life (t1/2)	Molecule
12.1 min	B6

Target: T1, human urotensin II receptor (UT)
Assay: displacement of 0.2 nM 125I-hUII from CHO cells expressing human UT
Remark: another data set of the same source

pEC50	Molecule
< 5	[Tbg^4]URP (peptide)
< 5	ACF[Tic]KYCV-OH (disulfide 2-7) [[Tic^4]URP]

Target: T1, human urotensin II receptor (UT)
Assay: as above
Remark: another data set of the same source

pEC50	Molecule
7.24	B2
< 5	B7
7.53	B3
7.68	ACF[dTiq]KYCV (disulfide 2-7, also called compound 17) [[D-Tiq^4]URP]
7.22	B4
7.77	B5
7.56	H-ACF[dPhg]KYCV-OH (disulfide 2-7, also called compound 15) [[D-Phg^4]URP]
7.33	ACF[d1Nal]KYCV (disulfide 2-7, also called compound 4; [D-Nal^4]URP) [[D-1-Nal^4]URP]

Target: T2, UT receptor present in rat aortic ring
Assay: cell-based or functional assay

Aortic Ring contraction Emax (%)	Aortic Ring contraction EC50	Aortic Ring contraction pEC50	Aortic Ring contraction Emax (%), maximum efficacy at 10^-5.5 M	Molecule
126 % of KCl (40 mM) contraction				B1
100 % of KCl (40 mM) contraction	7 nM	8.09		B8
			92 % of KCl (40 mM) contraction	B2
			43 % of KCl (40 mM) contraction	ACF[Tic]KYCV-OH (disulfide 2-7) [[Tic^4]URP]
117 % of KCl (40 mM) contraction	1 nM	9.08		H-ETPDCFWKYCV-OH (disulfide 5-10) [human urotensin II (hUII)]
99 % of KCl (40 mM) contraction				ACF[dTle]KYCV-OH (disulfide 2-7, also called compound 8) [[D-Tbg^4]URP]
			23 % of KCl (40 mM) contraction	H-ACF[Dip]KYCV-OH (disulfide 2-7) [[Dip^4]URP]
			77 % of KCl (40 mM) contraction	H-ACF[Cha]KYCV-OH (disulfide 2-7) [[Cha^4]URP]
102 % of KCl (40 mM) contraction				B3
113 % of KCl (40 mM) contraction				ACF[dTiq]KYCV (disulfide 2-7, also called compound 17) [[D-Tiq^4]URP]
148 % of KCl (40 mM) contraction				B4
86 % of KCl (40 mM) contraction				B5
128 % of KCl (40 mM) contraction				ACF[dTic]KYCV (disulfide 2-7) [[D-Tic^4]URP]
116 % of KCl (40 mM) contraction				H-ACF[dPhg]KYCV-OH (disulfide 2-7, also called compound 15) [[D-Phg^4]URP]
			34 % of KCl (40 mM) contraction	ACF[d1Nal]KYCV (disulfide 2-7, also called compound 4; [D-Nal^4]URP) [[D-1-Nal^4]URP]

Target: T2, UT receptor present in rat aortic ring
Assay: cell-based or functional assay
Remark: another data set of the same source

URP pEC50, rat aortic ring pre-treated with 10^-6 M [Bip^4]URP	pIC50, reversal of contractile tone established in rat isolated aorta with 4 nM hUII	Molecule
7.74		B8
	7.72	H-ACF[Bip]KYCV-OH (disulfide 2-7) [[Bip^4]URP]

Target: T2, UT receptor present in rat aortic ring
Assay: cell-based or functional assay
Remark: another data set of the same source

hUII pEC50, rat isolated aorta pre-treated with 0.3 µM [Bip^4]URP	hUII pEC50, rat isolated aorta pre-treated with 1 µM [Bip^4]URP	hUII pEC50, rat isolated aorta pre-treated with 3 µM [Bip^4]URP	hUII pEC50, rat isolated aorta, vehicle	Molecule
8.31	7.6	7.55	8.98	H-ETPDCFWKYCV-OH (disulfide 5-10) [human urotensin II (hUII)]

Target: T1, human urotensin II receptor (UT)
Assay: dissociation from living CHO-UT cells started with 10^-6 M URP alone
Description: as §1

half-life (t1/2)	Molecule
13.1 min	B6

From patent US20140113872A1 (INSTITUT NATIONAL DE LA RECHERCHE SCIENTIFIQUE, published 2014)
